The nanobody polyreactivity screen of Harvey et al. (2022)

Test: yeast display, Sf9 membrane polyspecificity reagent, FACS + sequencing; frameworks hold sequencing errors
In short: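 Synthetic nanobody libraries on Saccharomyces cerevisiae BJ5465 were galactose-induced for 36–48 hours, stained 1 hour at 4 °C with 10% biotinylated, detergent-solubilized Sf9 membrane reagent and enriched on streptavidin microbeads. FACS then separated cells into low and high (top ~1%) gates by anti-HA (expression) and streptavidin (reagent binding) fluorescence. Genes were colony-PCR amplified, MiSeq 2 × 250 sequenced and CDR-length filtered. A clone's polyreactivity label is that of its gate of origin.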

Sequence	polyreactivity (PSR sort gate)
QVQLVESGGGLVQAGGSLRLSCAASGLTFDQYVMGWYRQAPGKERELVAAISRRGGGTYYADSVKGRFTISRDNAKNTVYLQMNSLKPEDTAVYYCNTDQAWRSWRGNYPFLTGNYWGQGTQVTVSS	high polyreactivity
QVQLVESGGGLVQAGGSLRLSCAASGLTFDRYAKGWYRQAPGKERELVAAITSGGSTYYADSVKGRFTISRDNAKNTVYLQMNSLKPEDTAVYYCAALVFRGRSFTHDYWGQGTQVTVSS	high polyreactivity
QVQLVESGGGLVQAGGSLRLSCAASGLTFDTYAMGWYRQAPGKERELVAAISIGGRTNYADSVKGRFTISRDNAKNTVYLQMNSLKPEDTAVYYCAVGAVVPGRRRRTYYYWGQGTQVTVSS	high polyreactivity
QVQLVESGGGLVQAGGSLRLSCAASGLTFDVYAMGWYRQAPGKERELVAALSTSGGRTYSADSVKGRFTISRDNAKNTVYLQMNSLKPEVTAVYYCNAGYDYYWRYYWYWYAFNYWGQGTQVTVSS	high polyreactivity
QVQLVESGGGLVQAGGSLRLSCAASGLTFDWYALGWYRQAPGKERELVAAISWNGVSTDYADSVKGRFTISRDNAKNTVYLQMNSLKPEDTAVYYCNAKGQRNKRWRGYWGQGTQVTVSS	high polyreactivity
QVQLVESGGGLVQAGGSLRLSCAASGLTFEDYAMGWNRQEPGKEREFVAAISTSGGRTYYADSVKGRFTISRDNAKNTVYLQMNSLKPEDTAVYYCAAGGWYGYVYRFYYWGQGTQVTVSS	high polyreactivity
QVQLVESGGGLVQAGGSLRLSCAASGLTFEKYAMGWYRQAPGKERELVAAISQDGGSTYYADSVKGRFTISRDNAKNTVYLQMNSLKPEDTAVYYCAAEDPDSWLPWDLFDYWGQGTQVTVSS	low polyreactivity
QVQLVESGGGLVQAGGSLRLSCAASGLTFEWYTMGWYRQAPGKERALVAVITVSGSSTYYADSVKGRFSISRDNAKNTVYFQMNSLKPEDTAVYYCNADWSFYSYTLYDYWGQGTQVTVSS	low polyreactivity
QVQLVESGGGLVQAGGSLRLSCAASGLTFFNYAMGWNRQAPGKERELVASITSGGSTNYADSVKGRFTISRDNAKNTVYLQMNSLNPEDTAVYYCAARYPYRTYKLSHSYARPYGYWGQGTQVTVSS	high polyreactivity
QVQLVESGGGLVQAGGSLRLSCAASGLTFFYYAMGWYRQAPGKERELVAGISRSGGSTYYADSVKGRFTISRDNAKNTVYLQMISLKPEDTAVYYCAKRTLVASYIYREGEYWGQGTQVTVSS	high polyreactivity
QVQLVESGGGLVQAGGSLRLSCAASGLTFFYYAMGWYRQAPGKERELVASISSSGITNYADSVKGRFTISRDNAKNTVYLQMNSLKPEDTAVYYCASQYYISPLRYYSPTGGYWGQGTQVTVSS	high polyreactivity
QVQLVESGGGLVQAGGSLRLSCAASGLTFGDYTMGWYRQAPGKERELVAAISTSGGSTYYADSVKGRFTISRDNAKNTVYLQMNSLKPEDTAVYYCNARRTHTRSHYYYWGQGTQVTVSS	high polyreactivity
QVQLVESGGGLVQAGGSLRLSCAASGLTFGDYTMGWYRQAPGKERELVAAITGSGASTYYADSVKGRFTISRDNAQNTGYLQMNSLKPEDTAVYYCDAERTPSYRAYDYWGQGTQVTVSS	low polyreactivity
QVQLVESGGGLVQAGGSLRLSCAASGLTFGDYTMGWYRQAPGKERELVAAITWSGASTYYADSVKGRFTISRDNAKNTVYLEMNSLKPEDTAGYYCAAERTPSYRAYDYWGQGTQVTVSS	low polyreactivity
QVQLVESGGGLVQAGGSLRLSCAASGLTFGFNAMGWYRQAPGKERELVAAISSRGGSTYYADSVKGRFTISRDNAKNTVYLQMNSLKPEDTAVYYCNARSVYDGFWYNYWGQGTQVTVSS	low polyreactivity
QVQLVESGGGLVQAGGSLRLSCAASGLTFGFYARGWYTQAPGKERQLVPRISNGGSTNYADSVKGRFTISRDNAKNTVYLQMNSLKPEDTAVYYCNAGLVLPPPGAYIVYFDQMDYWGQGTQVTVSS	low polyreactivity
QVQLVESGGGLVQAGGSLRLSCAASGLTFGGNAMGWYRQAPGKERELVAGISWSGGNTNYADSVKGRFTISRDNAKNTVYLQMNSLKPEDNAVYYCNKATNLSGGYDSWGQGTQVTVSS	low polyreactivity
QVQLVESGGGLVQAGGSLRLSCAASGLTFGGYVMGWYRQAPGKERELVAAISGSGGRTYYADSVKGRFTISRDNAKNTVYLQRNSLKPEDTAVYDCARPPRGPPRGYYWGQGTQVTVSS	high polyreactivity
QVQLVESGGGLVQAGGSLRLSCAASGLTFGRNAMGWYRQAPGKERELVAAIRWSGGSTYYADSVKGRFTISRDNAKNTVYLQMNSLKPEDTAVYYCAATRVLRPVGTHYYYWGQGTQVTVSS	high polyreactivity
QVQLVESGGGLVQAGGSLRLSCAASGLTFGRYAMGWYRQAPGKERELVAAITASGGITYYADSVKGRFTISRDNAKNTVYLQMNSLKPEDTAVYYCAADGEVKYDYWGQGTQVTVSS	low polyreactivity
QVQLVESGGGLVQAGGSLRLSCAASGLTFGSYAMGWYRQAPGKERELVAAISRSGITYYADSVKGRFTISRDNAKNTVYLQMNSLKPEDTAVYYWAVTQNSKSTKIRPDQGDYGGQGTQVTVSS	high polyreactivity
QVQLVESGGGLVQAGGSLRLSCAASGLTFGVYAMGWSRQAPGKERELVAAIDLSDDITYYADSVKGRFTISRDNAKNTVYLQMNSLKPEDTAVYYSAAEYYLYSTYTVSYWKYDYWGQGTQVTVSS	high polyreactivity

Sequence	polyreactivity (PSR sort gate)
QVQLVESGGGLVQAGGSLRLSCAASGLTFGYYAMGWYRQAPGKERELVAGISGSGGSTYYADSVKGRFTISRDNAKNTLYLQMNSLKPEDTAVYYCNAEARYTGFAYSYFNSDYWGQGTQVTVSS	low polyreactivity
QVQLVESGGGLVQAGGSLRLSCAASGLTFGYYAMGWYRQAPGKERELVAVISGGGGTHYADSVKGRFTISRDNAKITVYLQMNSLKPEDTAVYYCAARYRAQQIARYYYWGQGTQVTVSS	high polyreactivity
QVQLVESGGGLVQAGGSLRLSCAASGLTFGYYDMGRYRQAPGKERELVAAITSGGTTNYADSVKGRFTISRDNAKNTVYLQMNSQKPEDNAVYYCNADYYSRIVGVRIYDYWGQGTQVTVSS	low polyreactivity
QVQLVESGGGLVQAGGSLRLSCAASGLTFIHYAMGWYRQAPGKEREFVAAISTNSGSTYYADSVKGRFTISRDNAKNTVYLQMNSLKPEDTAVYYCAARGLRWRIDGEYWGQGTQVTVSS	high polyreactivity
QVQLVESGGGLVQAGGSLRLSCAASGLTFIIYAMGWYRQAPGKERELVARISSGGRTNYADSVKGRFTISRDYAKNTVYIQMNSLTPEDTAVYYCAAAFVYPYRHYYRYDYWGQATQVTVSS	high polyreactivity
QVQLVESGGGLVQAGGSLRLSCAASGLTFKANAMGWYRQAPGKERELVAAITWSGTSTYYADSVKGRFTISRDNAKNTVYLQMNSLKPEDTAVYYCNKPYDVWYHDYDYWGQGTQVTVSS	low polyreactivity
QVQLVESGGGLVQAGGSLRLSCAASGLTFKFNAMGWYIQAPGKERELVADISFGGDDTYYSDSVKGRFTISRDNAKNTVYLQMNSQKPEDNAVYYCAAEYDTWGYSGRDYWGQGTQVTVSS	low polyreactivity
QVQLVESGGGLVQAGGSLRLSCAASGLTFKRYAMGWYRQAPGKEREFVAAISAGGASTHYADSVKGRFTISRDNAKNTVYLQMNSLKPEDTAVYYCATDYRTFRPSFGYWGQGTQVTVSS	low polyreactivity
QVQLVESGGGLVQAGGSLRLSCAASGLTFKRYVMGWYRQAPGKERELVAAITVSGGNTYYADSVKGRFTISRDNAKNTVYLQMNSLKPEDTAVYYCNADAGAIYYRRYHFYYWGQGTQVTVSS	low polyreactivity
QVQLVESGGGLVQAGGSLRLSCAASGLTFKSNAMGWYRPAPGKERELVASISKRGGTTYYADSVKGRFTISRDNAKNTVYLQMNSLKPEDTAVYYCAAQSRATTYSWWTGSDYWGQGTQVTVSS	high polyreactivity
QVQLVESGGGLVQAGGSLRLSCAASGLTFKSYAMGWYRQAPGKERELVAAISWRGGRTYYADSVKGRFTISRDNAKNTVYLQMNSLKPEDTAVYYCNARSQQWWLSRYNYWGQGSQVTVSS	high polyreactivity
QVQLVESGGGLVQAGGSLRLSCAASGLTFKVYDMGWYRQAPGKERELVAAISWSGGSTYYADSVKGRFTISRDNAKNTVYLQMNSLKPEDTAVYFCAVEPSYYVVFFPYEYWGQGTQVTVSS	low polyreactivity
QVQLVESGGGLVQAGGSLRLSCAASGLTFKYYAMGWYRQAPGKERELVAAISWNGDRTYYADSVKGRFTISRDNAKNTVYLQMNSLKPEDTAVYYCATKFYFSTSIAGGYWGQGTQVTVSS	high polyreactivity
QVQLVESGGGLVQAGGSLRLSCAASGLTFLNNAMGWYRQAPGKERELVAAISDGGSTNYADSVKGRFTISRDNAKNTVYLQMNSLKPEDTAVYYCAARVRGDYGHKYYQFDYWGQGTQVTVSS	low polyreactivity
QVQLVESGGGLVQAGGSLRLSCAASGLTFLWYAMGWYRQAPGKERELVAAITSGGRTKYADSVKGRFTISRDNAKNTVYLQMNSLKPEDTAVYYCAAYTQWWGYDYWGQGTLVTVSS	high polyreactivity
QVQLVESGGGLVQAGGSLRLSCAASGLTFLWYAMGWYRQAPGKERELVAAITSGGRTKYADSVKGRFTISRDNAKNTVYLQMNSLKPEDTAVYYCAKRGGGTTYSRKHDYWGQGTQVTVSS	high polyreactivity
QVQLVESGGGLVQAGGSLRLSCAASGLTFLYYAMGWYRQAPGKEREFVAAIDISGGSTYYADSVKGRFTISRDNAKKTVYLQMYSLKPEDTAVYYCAVEPWYYLAGRSQYDYWGQGTQVTVSS	low polyreactivity
QVQLVESGGGLVQAGGSLRLSCAASGLTFLYYAMGWYRQAPGKERELVAAITGSGGTTNYADSVKGRFTISRDNAKNTVYLQMNSLKPEDTAVYYCAARGRKYYTSLGYYYWGQGTQVTVSS	high polyreactivity
QVQLVESGGGLVQAGGSLRLSCAASGLTFNSYDMGWYRQAPGKERELVAAISSGGVLPNYADSVKGRFTISRDNAKNTVYLQMNSLNPEDTAVYYCNVYSWPYDYWGQGTQVTVSS	low polyreactivity
QVQLVESGGGLVQAGGSLRLSCAASGLTFNVYAMGWYRQAPGKERELVASITKRGGSTYYADSVKGRFTISRDNAKNTVYLEMNSLKPEDTAVYYCAADGLTGSKYRATGYYWGQGTQVTVSS	high polyreactivity
QVQLVESGGGLVQAGGSLRLSCAASGLTFNYYAMGWYRQAPGKERELVAAISSSTGSTYYADSVKGRFTISRDNAKYTVYLQMNSLKPEDTAVYYCAAVRTKAYVSRTSQSGYWGQGTQVTVSS	high polyreactivity
